# Article PMC11564776, “Enzyme stabilisation due to incorporation of a fluorinated non-natural amino acid at the protein surface” (Scientific Reports, 2024)
# B1: wild-type E. coli transketolase (enzyme)
# chain: SSRKELANAIRALSMDAVQKAKSGHPGAPMGMADIAEVLWRDFLKHNPQNPSWADRDRFVLSNGHGSMLIYSLLHLTGYDLPMEELKNFRQLHSKTPGHPEVGYTAGVETTTGPLGQGIANAVGMAIAEKTLAAQFNRPGHDIVDHYTYAFMGDGCMMEGISHEVCSLAGTLKLGKLIAFYDDNGISIDGHVEGWFTDDTAMRFEAYGWHVIRDIDGHDAASIKRAVEEARAVTDKPSLLMCKTIIGFGSPNKAGTHDSHGAPLGDAEIALTREQLGWKYAPFEIPSEIYAQWDAKEAGQAKESAWNEKFAAYAKAYPQEAAEFTRRMKGEMPSDFDAKAKEFIAKLQANPAKIASRKASQNAIEAFGPLLPEFLGGSADLAPSNLTLWSGSKAINEDAAGNYIHYGVREFGMTAIANGISLHGGFLPYTSTFLMFVEYARNAVRMAALMKQRQVMVYTHDSIGLGEDGPTHQPVEQVASLRVTPNMSTWRPCDQVESAVAWKYGVERQDGPTALILSRQNLAQQERTEEQLANIARGGYVLKDCAGQPELIFIATGSEVELAVAAYEKLTAEGVKARVVSMPSTDAFDKQDAAYRESVLPKAVTARVAVEAGIADYWYKYVGLNGAIVGMTTFGESAPAELLFEEFGFTVDNVVAKAKELL
# notes: transketolase (TK) of E. coli, wild-type gene in plasmid pQR791; the introduction gives the domains as residues 1-322 (PP), 323-539 (Pyr) and 540-663 (C-terminal); Used as holo-TK with ThDP and MgCl2; also called WT TK; WT-TK; source: E. coli XL-10-Gold with plasmid pQR791, purified (Ni-NTA)
# Target: the molecule itself
# Assay: SEC; Zorbax-GF250 column, 1 mL/min, 200 mM sodium phosphate pH 7.0, column at room temperature; holo-TK samples stored at 4 °C or heated 15 min at 21 °C or 50 °C; homodimer and monomer peaks combined as 'native' because dilution during SEC can cause partial dissociation to monomer
protein,measurement,value
B1,binding result,binds
